# Assay results reported in the DeepSol protein solubility set.
# Experiment: soluble on expression in E. coli; label from the status in PepcDB or PDB records
row,Sequence,soluble on expression in E. coli
1,MGSDKIHHHHHHMTYKPKYDNLMENPKIRRWFENLKAKSILTATVYRRTLGYYCELEKTTPEQLLTDMEKLEFRDNFLDFVRRLEKEGKAGSYIVRYKKVLRSWAKFNGIDIKLDVNIANENESPTLDNERVPSKEELSRLLRKATSRGRVSIPIMAFSGFRPETLGNYEGTDGLRLGDIKELKISDEIEFTKIPATIMVKTRLSKARNQYFSFIGEEGITYIKEYLEERKKNGEELTYESPLLQFDVRGTKKNDFMRTMLVTRDIREAITTAGLKMRPYVLRAYFSTALDIAESKGLISHPWRQFIMGHKGDIEARYSTNKRLPPDMIEEMRESYRKCLKFLETRISDVSEDNAKLFLQQQLLSAVGYKQEEIDKLDLSSVSNEDFQQLLRDKVAGAMSDNGAKQKVIPVNEIEQYISDGYDFEAVLPNGKAVMRLRF,not soluble
2,MGSDKIHHHHHHMVARRRLDAELVRRKIARSREHAVEMIRGRRVFVAGMLALKPATVVEPEVSIRVEEDASEDWASRGAHKLLGALESFEPLGLKVKGRRVLDAGASTGGFTDVLLRREASEVVAVDVGYGQLIWRLQNDDRVRVVDRTNIRYMTLEDTGGECDMMVGDLSFISLKLTLPAIAKVLSDGADLLPMVKPQFEVGKDRLGSGGVVRSPELRAEVTADVAKFAATLGLSLKHVVASPLPGPSGNVEYFLWLVKDGGASMPDDQQLSAMIDTAVKEGPQ,not soluble
3,MGSDKIHHHHHHMVDDVFGNAIASATFRTHSDSLVVDSLATVDLTASAWPVFDIAASAINYPFLYADRDGTDLGALAVQQFDDVDQRLRTWMRGFVAGEPTDTLSLLKDISLGIASSISYQSREEEGTQAPLTTLDRGWGSCRDFAVLFAEAVRSLGFGARIVSGYLFNPNRALTGSTDSGSTHAWAEVFVPGAGWITLDPTNRSMGGANLIPVAVTRDIAHAVPVSGSFIGGSNGLPVNERGRRSQSNRPGLSGAAVERWIDVAQFSRCRAAPLVLNRPEPLTR,not soluble
4,MGSDKIHHHHHHMVEVLERLGCETVLPEKQICCGQPTYNSGYSKDSMKTFKNEIDALLSIDADYIVGPSGSCVFMIKEYKDIFKDDPEYGPKAAEIDSKIYEFTQFIYRVLKVVDCGAELDAKVTVHRSCHMTRLIGERTAPFVLLDHVKDIERVPLKNVQLCCGFGGTFSAKRPELSVEMVDEKVKNIVDTDAEILIGTEESCLMNIVGRMNRLGYKIKAMHIAEVLNHNVDINRIKYIKDTDHVVVPANGEGVF,not soluble
5,MGSDKIHHHHHHMVFPISLEGYHLEEVVIIGGGVAGLSCLNALLDQGISALLIEGSTIGTPKMCGEFLAPIAAQQLQLWDVDPLIPIPHAAFYAGIRQLDIHFTKPSAAISRSDVELKLAARARRLGGRIRENTYLEYTTPATERTPFYFKLSTGEIIEAKSAFFATGKLSNNKDNKKIALPYFGFKLHFSHTENDHSLKMFSLDKAYLGIVPITETISNCACLAKREAVDAATSPEEHFRHLTQSHPVLKKIFTPLDLSAIDILSGRAPAFTQKKPPNWPNSYWIGDTLASLYPAIGSGFAHSVDSAIQAVQSYLKQQPKLYRINYSKSIKTKVLLGNVFNAALLQPKVGQLALPLLKRSPKLVNLVLKKLDYV,not soluble
6,MGSDKIHHHHHHMVGIILASHGEFAEGILQSGAMIFGEQENVKAVTLMPSEGPDDVKAKMQEAIASFDNQDEVLFLVDLWGGTPFNQANSLLEDHKDKWAIVAGMNLPMVIEAYASRFSMESAQEIATHILETAKDGVKVKPEELQPAEAPKAAATEDAQPKGSLPPGTVVGDGKIKFVLARIDSRLLHGQVATAWTKATQPNRIIVVSDAVAKDDLRKKLIEQAAPPGVKANVIPISKMIEVAKDPRFGNTKALLLFENPEDVLKVVEGGVEIPEVNVGSMAHSVGKVVVSKVLSMGQEDVDTFDELKAKGIKFDVRKVPNDSKANMDEILKKAKNELANA,not soluble
7,MGSDKIHHHHHHMVKVEIDEGSGFCFGVVTAIHKAEEELAKGVTLYCLGDIVHNSREVERLKEMGLITINHEEFKQLHNAKVLLRAHGEPPETYIIAKENNIEIIDATCPVVLRLQKRIKQEYMQEDLDEKQIVIYGKNGHAEVLGLVGQTTGKAIVIEKLDEARRLDFSKSIRLYSQTTKSLDEFWEIVEYIKEHISPDVTFEYYDTICRQVANRMPNLRKFAASHDLIFFVSGKKSSNGKMLFEECKKVNPNSHLIDSADEIDDSLLPGVNSIGVCGATSTPKWLMEEISEAIKAQIKRQ,not soluble
8,MGSDKIHHHHHHMVLPSMNKSVEAISNNHLQQPNKFPLINGLADVRDYYVANCLLFKLNKGSLRIENEFGEFIERSAPCLFLLEKDQTITLSMSEIEGHIDFSSLEVSYDLMQKFYKVFYSTRNYNDRELSLKTKPKYFFHADLLPGMSDTFDSILHGVACPRVCSNVSIDDHDYSYFSLMYLISAFVRKPGGFDFLERAIKITTKEKVYNIIISDLTRKWSQAEVAGKLFMSVSSLKRKLAAEEVSFSKIYLDARMNQAIKLLRMGAGNISQVATMCGYDTPSYFIAIFKRHFKITPLSFMRTMNH,not soluble
9,MGSDKIHHHHHHMVNEELLWVLWQHLLFSVESLHTTTGEPIIIKHTGTLNVHAGPDFSLAKLCIDGIEWAGDVEIHTKASDWYKHKHQHNPAYESVILHVVYEADIDITRADGSCIPVLELKDRIHTMHLETYGYLMEEKKTVPCAHAIHEIPAIVMEQMKQRVLIERLERKTDGLFQLLTDQPNWKMIAGRLIFKSFGTGLNDYLFERMAQQMDFNKLDRLSYAPKSIEALFFGCSGMLEKDWADDFPAALKKEYTYLQRTQTVTCTIDSSEWKFLRTRPVNFPTIRLAQLAALFSNTDWYASFSSITSVKYAEDFLNVSLSDYWLNHYRFDVLSKPAPKHIGKTFANTFLLNAYIPFLVLHARYYKNETTWEQVFEMLDTIQAEDNAITRVWKELGIRMDTGFDSQSGLELYKMYCTHKKCLSCSIGFSILRNASVSAVVK,not soluble
10,MGSDKIHHHHHHMVNGRFFTTAGESPAFRGRAWGRVVTQYFGGLDACCDGDDAFDAQLSQYEIGPMRVFTIAAPAHRIVRPVAALHDHGSDFFKLILQLSGVSEIEQRGKTFRLHSGDWSLYDPRVPYSIANLTHVEQLAIQIPRKQLGGFAVPDLHTSDVREFELKGLFSLLSSFLVSLSEQLPSLPGTTGTALSETILGLIVSTLTAQRDAQGEHVALPAVLRMRVKQYIHGHLADADLSIDRIARELRCSKRYLHRIFEEEGVTIDRYIWSSRLERCKDALDNARAAKPAISEIAFSWGFSSSAHFCRSFKQRYGMTPREFVRRRAWS,not soluble
11,MGSDKIHHHHHHMVRHKRDIQRDTVPEWEDLRQLAHEIKRYNVTHLDELLLRFEENARRNGVIVHWAKDAKEHNEILYGILRDHGVKKFVKSKSMLTEECHLNEYLIEKGINVIETDLGERILQLMEEPPSHIVMPAIHIKREAVSDLFHDKLGTEKGNYDPTYLTRAARKSLREDFISADAAMTGGNFAVASTGEVVVCTNEGNADMGMACQKLNICSFGLEKLVPDLDAVGVFTRLLARSGTGQPSTTYTAHYRKPHEGGELHYIIVDNGRTDIIENEEHVKTLNCIRCGACMNTCPVYRRSGGYSYTYFIPGPIGINLGMLKDPRRYSDNVSACSLCLSCSNVCPVKIDLGEQIYRWRQDLDHLGRASQEKKLMSAGMKYLMDSPWRFNTALKMAPMANSLPRFLLYNGLNAWGKGRELPRFASTSFNNWWKKNIKK,not soluble
12,MGSDKIHHHHHHMVSIRKSLLQFVFAGSYMKRWNDKLRPVELLEVDKQAHKMIVAWLLYQQNSDDLDDTSRLRLGSDIIEGGIFDYFYRLVITDIKPPVFYRIKDNAQHYAQLSAWVLDELEPLVQPLGEDFWGRMRGWVQRPEKNSRADRILDAAHLFASNWEFRLIESLNRFDDEIEDIGASFDAKLAGFDDLKGMDSLRHATGAVGRFAALCGQLRFQKRWSQTPRIPETSVLGHMFLVACYSYFFSLAVNACGARRQNNFFIGLFHDLPELLTRDIISPVKKSVEELDAVIKEYEEAELRRKVLNPLEEEGFGGIAARLSYYLGLEVGSEFTEAVVDNGNVLAVDFELLQSRYNHDRFDPRDGRMLKTCDTLAAFIEAYTAVRNGISSDQLQAALWRLRDKNRRTVIGPVHVGALFADFD,not soluble
13,MGSDKIHHHHHHMVYTTPWNRKIEFGRTMVMGIINVTPDSFFADSRKQSVLEAVETAKKMIEEGADIIDVGGMSTRPGSDPVDEEEELNRVIPVIRAIRSITDVPISVDTYRWRVALKALEAGADIVNDISGYQFEPDIVRVVSENNVPYVLMHIKGTPKTMQENPHYEDVVKEIKEYFTEKIEYLKEKGVNQIVLDPGIGFGKRYEDNLEILRRIDEFKELKLPILIGASRKSFIGITLGNVPPEERLEGTLAVTAYCTMKGVDIIRVHDVLPNKRVIRMMEAILWQRL,not soluble
14,MGSDKIHHHHHHMVYVNANVDTKVDNRKDNCDNTNTYSHTVDRKDNFDNTTTNTKTVNRNDNCNNQEEGDVNMYRRNDNCNNREATNSRSANYSIHNQGMINCYNGIAIDNRAFNSSGANTMAGTEFLRAFLDAPMSVMPGSRKNAIMDRQEGSTQPAIRYNNR,not soluble
15,MGSDKIHHHHHHMWELDVSPTRFKAHFSLDPGVACLNHGMLGACPISVQQRQSTLRAQLERQPAAFVLRALPALLDTARNCLAEVIGADPQDLLLLPNVTTAMSAVLRSRIFAPGDQILTTDHAYLSCRNLLEFIARSTGAEVMVAPVKVPVQHPDAIVDAVLERVTARTRLAVLDHVTSPTAIVFPIARLVERLAALGIDTLVDGAHAPGMLPLDVIAIGAAYYAGDCHKWLCTPRGAGFLHVRRDRQDGLHPPVISRGYGDATPGRPRLHLEFDWLGTADPTALLCIPAAIDFLATLLPGGLPAVFARNHALVTQAAARLAQALPLARLAPDAMVGSMVAFQLPDAASDAPDDAAASLQRWLYDAHRIDVAVTPWPHRTNRTLRISAQVYNAAEDFMQLDAPLAQCLAPDDRQSNNQCRTTEVMR,not soluble
16,MGSDKIHHHHHHMWFRNLLIYRLAGEVITSDELEAYLAKQTLQGCLGLEPQSRGWVPPGIAEADLVYSYGQQMLIALGTEKKLLPASVVNQLAKVRAQEMESHQGYAPGRKQMKEIKEAAYRELLSRAFAIRQRSHAWIDPVGGWFIVEGASASKADALIEAFIKSTGIGLKRIRTTMAPTSAMTAWLSGDDPPAIFSVDSDSIFRSREDKKVSVSYIRQSPDPQEITRHVRTGKEVIRLAMTWRDKISFILDENLQLKRLTLLDIDREPAETAEEQFDSNFFLMTEELRQLLPDLVEILGGMTAD,not soluble
17,MGSDKIHHHHHHMYAQTPQDMTRALFEAQLVELQRARAIRKKYHTDVVLGLTSAIRVLLIDMPSLYDKIKLLDYLHIVVEEPRFRSSHEGVKFHAYTATLPPDRTPDRTLQRDRTSRQTAATPETPHTQTARSHKKVTRDTTPFAAYENSKYAPIFVEPHIFTVHPLLLWVQMAAYLRLEELVVLGDAMMRRSFYRVHVSPADFATLLNELPTTFPHRKKCDKAVKLLAENTDSCMETRLRFRMLRAGYGPFVINYRLPLNTADKKQAFLDIAIPNLKIAIEYSGKFHAQNWESDEARRTALSSAGWQILSVNAETLSNSGKFKDFLIQLSMTIARQQTILQRNQQM,not soluble
18,MGSDKIHHHHHHMYLLVYGSLRYGFELNHLVAKSRFVGLGYIEGYEMYDLGNYPGVIKGDGIVWGEVYEIDENLIKLLDEVEDYKGSPDDLYVREKTRVYFDQKRKYYLDNVYFYRYNKEIVKNMEKIEDGDYSAWSGMPIIVNYFAYAENTNERILHQRGVDMILSETPAYTKGYRLIFNIPCKYGYCANLIEDESGIICGYLQKVFLHTLNSLDKAEQHLIKYIREVVKVYDRNGKEYFAYAYVSSYKENRKKPSEEYVKIIREGLMRGWGNECVSTGLYDEPGIS,not soluble
